Experimental data taken from patent US20200087364A1 (IMMATICS BIOTECHNOLOGIES, published 2020).

Each binder was assayed against T1, HLA-A*01:01 (human) (assay: UV-ligand exchange, anti-b2m ELISA).
T1 construct: MHC class I monomer first loaded with a UV-sensitive peptide (not identified) that is cleaved by UV irradiation and exchanged for the tested peptide; captured on streptavidin plates, detected with anti-β2m; also called peptide-receptive MHC molecules
Summary of the method: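 Peptide–MHC complexes made by UV-ligand exchange of a UV-cleavable peptide; exchange yield measured by ELISA on streptavidin-coated plates, samples diluted 100-fold, 1 h 37 °C. Detection with 2 ug/ml HRP anti-β2m, TMB, A450; refolded HLA-A*02:01/MLA-001 monomer standards 15-500 ng/ml.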
For MTEKFLFLY, the peptide exchange yield was > 75%. QLDSTLDSY showed a peptide exchange yield of 50 to 75%. In the case of VSELVTTGHY, the peptide exchange yield is reported as 50 to 75%. For FTDYELKAY, the peptide exchange yield was > 75%. For STIRGELFF, the peptide exchange yield was 20 to 50%. SSDNYEHWLY was tested, and the peptide exchange yield was > 75%. For YLEDRPLSQLY, the peptide exchange yield was > 75%. Binder KPSAVKDSIY has a peptide exchange yield of 20 to 50%. In the case of ESEMIKFASYY, the peptide exchange yield is reported as > 75%. NVDQNQNSY was tested, and the peptide exchange yield was 50 to 75%. For YTELVEEKY, the peptide exchange yield was 50 to 75%. With FTSDTGLEY the peptide exchange yield was > 75%. Work on FPAPPAHWFY yielded a peptide exchange yield of 20 to 50%. For LTEKSHIRY, the peptide exchange yield was 50 to 75%. For TTSSAISWILY, the peptide exchange yield was 50 to 75%. In the case of EMEQQSQEY, the peptide exchange yield is reported as > 75%. VDPASNTY was tested, and the peptide exchange yield was 20 to 50%. For TSEISQNALMY, the peptide exchange yield was > 75%. VTDSTTKIAY gave a peptide exchange yield of 50 to 75%. In the case of KEVDPAGHSYI, the peptide exchange yield is reported as 20 to 50%. For ASDDVRIEVGLY, the peptide exchange yield was > 75%. In the case of SITDVDFIY, the peptide exchange yield is reported as 20 to 50%. For LTDSTTRTTY, the peptide exchange yield was 50 to 75%. For TSEISQNALMYY, the peptide exchange yield was 50 to 75%. ASDLEPRELLSY was tested, and the peptide exchange yield was 50 to 75%. DTEFHGGLHY gave a peptide exchange yield of 50 to 75%. Binder TTDDTTAMASAS has a peptide exchange yield of 20 to 50%. Work on ASDPASSTSCY yielded a peptide exchange yield of 50 to 75%. In the case of QLDSAVKNLY, the peptide exchange yield is reported as 50 to 75%. With SSDIVALGGFLY the peptide exchange yield was 50 to 75%. For FMVIAGMPLFY, the peptide exchange yield was 50 to 75%. EVYDGREHSAY was tested, and the peptide exchange yield was 20 to 50%. With AADSNPSEL the peptide exchange yield was 20 to 50%. SSDPKAVMF showed a peptide exchange yield of 20 to 50%. NFSDLVFTY showed a peptide exchange yield of 20 to 50%. YEDHFPLLF showed a peptide exchange yield of 20 to 50%. For HLKILSPIY, the peptide exchange yield was 50 to 75%. SSDFDPLVY was tested, and the peptide exchange yield was > 75%. TSRAANIPGY was tested, and the peptide exchange yield was 10 to 20%. AFDDIATYF was tested, and the peptide exchange yield was 20 to 50%. TTQDELLVY was tested, and the peptide exchange yield was 50 to 75%. Work on QSLPEFGLTYY yielded a peptide exchange yield of 20 to 50%. ARDPITFSF gave a peptide exchange yield of 20 to 50%. For ITDEDEDMLSY, the peptide exchange yield was 50 to 75%. Binder YSDLHTPGRY has a peptide exchange yield of 50 to 75%. Work on STEERRLNY yielded a peptide exchange yield of 50 to 75%. Work on QSLPEFGLTY yielded a peptide exchange yield of 20 to 50%. With QTDVERIKDTY the peptide exchange yield was 50 to 75%. EVDIHTIHY was tested, and the peptide exchange yield was 50 to 75%. In the case of ELCPLPGTSAY, the peptide exchange yield is reported as 20 to 50%. Binder GSFSIQHTY has a peptide exchange yield of 20 to 50%. FTDSQGNDIK showed a peptide exchange yield of 50 to 75%. Binder ATEGDVLNY has a peptide exchange yield of 50 to 75%. VTEYAEEIYQY was tested, and the peptide exchange yield was 50 to 75%. With YLENSASWY the peptide exchange yield was > 75%. STDSASYY was tested, and the peptide exchange yield was > 75%.
